From the nanobody polyreactivity screen of Harvey et al. (2022)

Experiment: yeast display, Sf9 membrane polyspecificity reagent, FACS + sequencing; frameworks hold sequencing errors
Procedure, shortened: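 Nanobodies came from a synthetic yeast display library in Saccharomyces cerevisiae BJ5465, induced with galactose for 36–48 hours and stained for 1 hour at 4 °C with 10% biotinylated, detergent-solubilized Sf9 membrane reagent. Cells were enriched on streptavidin microbeads and then FACS-sorted, with low and high (top ~1%) gates set on anti-HA fluorescence for expression and streptavidin fluorescence for reagent binding. Each polyreactivity label reflects the gate a clone came from. Genes were amplified by colony PCR, sequenced by MiSeq 2 × 250 and filtered by CDR length.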

Row | Sequence | polyreactivity (PSR sort gate)
1 | HVQLVESGGGLVQAGGSLRLSCAAWSIFYLNAMGWYRQAPGKERELVAAISSAGSTYYADSVKGRFTISRDNAKNTVYLQMNSLKPEDTAVYYCAAYWYDSPGVTEIWYDYWGQGTQVTVSS | low polyreactivity
2 | HVQLVESGGGLVQAGGSLRVSCAASGSTFTRNAMGWYRQAPGKERELVAAITLRGGRTYYADSVKGRFTISRDNAKNTVYLQMNSLKPEDTAVYYCAAKPYTAYSYYEQRGRKYDYWGQGTQVTVSS | low polyreactivity
3 | HVQLVESGGGLVQAGVSLRLSCAASGRLLEGYAMGWYRQAPGKERELVAAISFSTTTTYYADSVKGRFTISRDNAKNTVYLQMNSLKPEDTAVYYCAADSQQSDYDYWGQGTQVTVSS | high polyreactivity
4 | HVQLVESGGGVVQAGGSLRLSCAASGIIFYYYTMGWYRHAPGKQRELVAAISTSGGRTYYADSVKGRFTISRDTAKNTVYLQMNSLKPEDTAVYYCNARSRHTTLDYWGQGTQVTVSS | high polyreactivity
5 | HVQRVDSGAGLVQPRCSLRISCAASGNTFKQYAMGWYRQAPGKDRELVAAIRRSGSTYYADSVKGRFTISRDNAKYTVYLEMNSLKPEDPAVYYCNARIYRLYSTYSWTRYDYWGQGTQVTVSS | high polyreactivity
6 | HVQRVESGGGLVQAGGSLRLSCAASGLIFVRYAMGWYRQAPGKERELVAAITTGGRTYYADSVKGRFTISRDNAKNTVYLQMNSLKPEDTAVYDCAASRSTYRASRPGTTFNYWGQGTQVTVSS | high polyreactivity
7 | HVQVVESGGGLVQAGGSLRLSCAASGSTFPANAMGWYRQAPGKERELVAAISSSGGRTYYADSVKGRFTISRDNAQKTVYLQMNSLKPEDTAVYYCAAYGGGGYKYDYWGQGTQVSVSS | low polyreactivity
8 | HVRLQESVGGLVQAGGSLRQSCAASGAISPYYDMGWYRLAPGKEREFVASIAHGGTTYYADSVKGRFTTSRDNAKNTVYLQMNSLKPEDTAVYYCAVAYDVWHSHIYRGQGTQVTVSS | high polyreactivity
9 | IIQAGGSLRLSCAASGRTLSGYAMGWYRQAPGKERELIADITSGGSTYYADSVKGRFTISRDNAKNTVYLQMNSLKPEDTAVYYCAAERQIRSFWSSRTYEFGYWGQGTQVTVSS | low polyreactivity
10 | KDQLVESGGGLVQAGGSLRLSCAASGLTFGGNAMGWYRQAPGKERELVAGISSSGNTNDADSVKGRFTISRDNAKNTVYLQLNSLKPEDTAVYYCAADENITYPVYDLYYWGQGTQVTVSS | low polyreactivity
11 | KDQLVESGVGLVQAGCSLRLSCAASGRTLRRNAMGWYRQAPRKERELVAAISTGGGSTYYADSVKGRFTISRDNAKNTVYLQMNSLKPVDTAVYYCAAVYSQSTKRYELYYWGQGTQVTVSS | high polyreactivity
12 | KFQLVESGGGLVQAGGRLRLSCAASGSTFWDYAMGWYRQATGKERQLVAVITSSGGGTYYADSVKGRFTISRDNSKNTVYLLMNSLKPEDTAVYYCAKKRPYSNGGYYWGQGSQVTVSS | high polyreactivity
13 | KGHLEESGGGLVQAGGRLRLSCPASGNTFGDYAMGRYRQAPGKERELVAAISRSGGSTSYADSVKGRFTISRDNAKNTFYLQMNSLKPVDTAVYYCAAYWQRFGYDYWGQGTQVTVSS | low polyreactivity
14 | KGQHVESGGGLVQAGGRLRLSCAASGSIFRYNAMGWDRQAPGKEREFVAAISWSGGRTFYADSVKGRFTISRDNAKNTVYLQMNSLKPEDTAVYYCAARSSRTTRQGYDYWGHGTQVTVSS | high polyreactivity
15 | KSGGGLVQAGGSLRLSCAASGRIYVEYAMAWYKQAPGKERELVASISWSGDSTYYAESVKGRFTISRDNAKNTVYSQKKSLKPEATAVYYCNADGQVGYAVSYDYWGQGTQVTVSS | low polyreactivity
16 | KVKLVESGGGLVQAGGSLRLSCAASGITSWYYAMGWYRQAPGKERELVAAITSDGSTYYADSVKGRFTISRDNAKNTVYLQMNSLKPEVTAVYYCAAERDYWIPDSYLVGMDFWGLGTQVTVSS | low polyreactivity

Row | Sequence | polyreactivity (PSR sort gate)
17 | KVQLQESGGGLVQAGGSLRLSCAASCTISQEDWMGWYRQAPGKEREFVAAIGLGSNTNYADSLKGRFPISRDNAKNTVYLQMNSLKPEDTAVYYCAVSVWQYSDHVYRGQGTQVTVSS | low polyreactivity
18 | KVQLVDSGGGLVQAGGSLRLSCAASGSTSKCYAMGWYRPEPGKERELVAAITKTGGRTYYADSVKGRFTISRDNAKNTVYLQMNSLKPEDTADYYCAVEYLRGFIVIYDYWGQGTQVTVTS | high polyreactivity
19 | KVQLVESAVGLVQAGGSLRLSCAASGPTFWRNAMGWYRQAPGKERELVAAISRGGSTNYADSVKGRFTISRDNAKNTVYLLMNSLKPEDTAVYYCAARYYYRYNYWGQGTQVTVSS | high polyreactivity
20 | KVQLVESGGCLVQAGGSLSLSCAASGSIFAVYAMGWYRQAPGKERELVAAITLSGGSTYAYSVKGRFTISRDNAKNTFYLQMKSLKPEDTAVYYCNAVSANYDYVDYEYWGQGTQVNVSS | low polyreactivity
21 | KVQLVESGGGLVQAGGSIRLSFAASGLIFLQYCMGWYRQAPGKERELVAAITTRGGRTYYADSVKGRFTISRDNPKNTVYLQMNSLKPEDTAVYYCAADSEQDNLRYYRWVWYYYWGQGPQVTVSS | low polyreactivity
22 | KVQLVESGGGLVQAGGSLRLSCAASGGTFSYNAMGWYRQAPGKERELVAAISWSGTRTYYADSVKGRFTISRDNAKNTVYLQMNSLKPEDTAVYYCNKPPPNRGRYDYWGQCTQVTVSS | low polyreactivity
23 | KVQLVESGGGLVQAGGSLRLSCAASGLNFGRYAMGWYRQAPGKERELVAAISSSGVRTYYADSVKGRFTISRHNAKNTVYLQMNSLKPADTAVYYCAAAYWSSREDTVIKRYYWGQGTQVTVSS | high polyreactivity
24 | KVQLVESGGGLVQAGGSLRLSCAASGNTFYVYTMGWYRQAPGKERDLVAAISSTGDRTYYADSVKGRFTISRDNAKNTVYLQMNSLKPEDTSVYYCADVRYITKEFYWGLGTQVTVSS | high polyreactivity
25 | KVQLVESGGGLVQAGGSLRLSCAASGRIFKYYAMGWYRQAPGKERELVAAISARGGSTYYADSVKGRFTISRDNAKNTVYLQMNSLKPEDTAVYYCAAPYLTTQYERMYYWGQGTQVTVSS | high polyreactivity
26 | KVQLVESGGGLVQAGGSLRLSCAASGSIISPNAMGWYRQAPGKERELVAGITQSGGSTYYADSVKGRFTISRDNAKNTVYLQMNSLKPEDTAVYYCSVDFILGWYSYYYWGQGTQVTVSS | high polyreactivity
27 | KVQLVESGGGLVQAGGSLRLSCAASGSTFSTNAMGRYRQAPGKERELVAAISRTGGSTYYADSVKGRFTISRDNAKNNVYLPMNILKPEDTAVYYSARYSYRGTNVRFDYWGQGTQVTLSS | high polyreactivity
28 | KVQLVESGGGLVQAGGSLRLSCAASGSTFSYYAMGWYRQGPGKERELVAAITRSGYSTYYADSVKGRFTISLDNAKNTVYLQMNSLKPEDTAVYYCNTVSRYKYPKPTYYQSSFYYWGQGTQVTVSS | high polyreactivity
29 | KVQLVESGGGLVQAGGSLRLSCAATGRIFRPKAMGCYIQAPGKEREMVAAIRSTVGSTFYEYSVKGRFSISRDNAKNTVYLEMNRLKREDTAVYYCAGGTSRQFYYWGQGTQVTVSS | low polyreactivity
30 | KVQLVESGGGLVQAGGSLRLSCPASGSIFTSYAMGWYRQAPGKERELVAAISSGGSTNYADSVKGRFTISRDNAKNTVYLQMNSLKPEDTAVYYCAKGSRKSGYKYYHGRVWFGYWGQGTQVTVSS | high polyreactivity
31 | KVQLVESGGGLVQAGGSLRLSRAASGFTFGSYAMGWYRQAPGKERELVAAITRRGGSTRYADSVKGRFTISRDNAKNTVYLQMNSLKPEDTAVYYCAAKHGRNYAANALYGYWGQGTQVTVSS | high polyreactivity
32 | KVQLVESGGGLVQAGGSLRLTCAASGSTFYIYAMGWYRPAPGKERELVATISSTGSTHYADSVKGRFTISRDNAKNTVFLQMNSLKPEDTAGYYCNPVYFGRYSRRDHWGQGTQVTVSS | high polyreactivity
